This is an account of results in patent US20240400701A1 (LANOVA MEDICINES DEVELOPMENT, published 2024).

Assay [1] concerns the target T1, human AMHRII (anti-Mullerian hormone receptor type 2) (human, UniProt Q16671 18-573).
T1 construct: whole, on cells; also called AMHR2; human AMHR2
T1 sequence (looked up): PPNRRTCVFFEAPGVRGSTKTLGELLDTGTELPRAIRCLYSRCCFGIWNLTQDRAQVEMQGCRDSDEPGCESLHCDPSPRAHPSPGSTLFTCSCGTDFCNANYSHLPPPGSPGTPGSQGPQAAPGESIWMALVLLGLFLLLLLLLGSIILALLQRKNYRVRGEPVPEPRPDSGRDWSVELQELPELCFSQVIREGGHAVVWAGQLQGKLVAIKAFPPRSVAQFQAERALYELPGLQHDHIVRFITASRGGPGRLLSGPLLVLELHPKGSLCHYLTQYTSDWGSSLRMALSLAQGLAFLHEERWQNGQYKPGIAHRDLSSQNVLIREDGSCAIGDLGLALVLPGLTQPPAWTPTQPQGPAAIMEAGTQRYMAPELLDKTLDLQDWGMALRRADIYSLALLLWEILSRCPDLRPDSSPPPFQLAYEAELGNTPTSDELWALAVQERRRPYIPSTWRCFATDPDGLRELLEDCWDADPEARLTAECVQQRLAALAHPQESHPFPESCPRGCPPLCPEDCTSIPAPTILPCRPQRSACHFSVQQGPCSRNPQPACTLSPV
Briefly: FACS on CHO-K1 cells over-expressing human AMHR2. The protocol: (§1) CHO-K1 cells over-expressed AMHR2 were harvested from flasks. 100 μl of 1×10⁶ cells/ml of cells were incubated with the humanized antibodies in 3-fold serial dilutions starting from 300 nM to 0.001 nM for 30 minutes on ice. After being washed with 200 μl of FACS buffer twice, cells were incubated with secondary antibody for 30 minutes on ice. Cells were washed with 200 μl of FACS buffer twice and analyzed by FACS.

Assay [2] addresses T1, human AMHRII (anti-Mullerian hormone …). Briefly: FACS on Rko cells over-expressing human AMHR2. The procedure: Similarly, the binding of these antibodies was tested with Rko cells that over-expressed AMHR2. 100 μl of 1×10⁶ cells/ml of cells were incubated with the antibodies in 3-fold serial dilutions starting from 300 nM to 0.002 nM for 30 minutes on ice. After being washed with 200 μl of FACS buffer twice, cells were incubated with secondary antibody for 30 minutes on ice. Cells were washed with 200 μl of FACS buffer twice and analyzed by FACS.

Assay [3] shares this target. Nature of the assay: cell-based or functional assay.
Assay [4] has the same target. Briefly: FACS on CHO-K1 cells over-expressing human AMHR2. The protocol:
as §1
The source holds these as a separate data set.

For assay [5] the target is unchanged. Briefly: FACS on CHO-K1 cells over-expressing human AMHR2. The procedure: CHO-K1 cells that over-expressed AMHR2 were harvested from flasks. 100 μl of 1×10⁶ cells/ml of cells were incubated with primary chimeric antibodies (or with positive reference antibody Ref.Ab) in 3-fold serial dilutions starting from 300 nM to 0.002 nM for 30 minutes on ice. After being washed with 200 μl of FACS buffer twice, cells were incubated with secondary antibody for 30 minutes on ice. Cells were washed with 200 μl of FACS buffer twice and analyzed by FACS.
This is another data set of the same source.

Assay [6] has the same target. Briefly: FACS on Rko cells over-expressing human AMHR2. The procedure: Rko cells over-expressing AMHR2 were harvested from flasks. 100 μl of 1×10⁶ cells/ml of cells were incubated with primary PTM antibodies in 3-fold serial dilutions starting from 300 nM to 0.001 nM for 30 minutes on ice. After being washed with 200 μl of FACS buffer twice, cells were incubated with secondary antibody for 30 minutes on ice. Cells were washed with 200 μl of FACS buffer twice and analyzed by FACS.
This is another data set of the same source.

Assay [7] has the same target. Briefly: FACS on CHO-K1 cells over-expressing human AMHR2. The protocol: as §1
The source holds these as a separate data set.

Assay [8] has the same target. Nature of the assay: FACS on CHO-K1 cells over-expressing human AMHR2. The protocol: as §1
The source holds these as a separate data set.

A further assay has as its target T2, mouse AMHR2 (mouse, UniProt Q8K592 16-568).
T2 construct: whole, on cells; also called mouse AMHRII
T2 sequence (looked up): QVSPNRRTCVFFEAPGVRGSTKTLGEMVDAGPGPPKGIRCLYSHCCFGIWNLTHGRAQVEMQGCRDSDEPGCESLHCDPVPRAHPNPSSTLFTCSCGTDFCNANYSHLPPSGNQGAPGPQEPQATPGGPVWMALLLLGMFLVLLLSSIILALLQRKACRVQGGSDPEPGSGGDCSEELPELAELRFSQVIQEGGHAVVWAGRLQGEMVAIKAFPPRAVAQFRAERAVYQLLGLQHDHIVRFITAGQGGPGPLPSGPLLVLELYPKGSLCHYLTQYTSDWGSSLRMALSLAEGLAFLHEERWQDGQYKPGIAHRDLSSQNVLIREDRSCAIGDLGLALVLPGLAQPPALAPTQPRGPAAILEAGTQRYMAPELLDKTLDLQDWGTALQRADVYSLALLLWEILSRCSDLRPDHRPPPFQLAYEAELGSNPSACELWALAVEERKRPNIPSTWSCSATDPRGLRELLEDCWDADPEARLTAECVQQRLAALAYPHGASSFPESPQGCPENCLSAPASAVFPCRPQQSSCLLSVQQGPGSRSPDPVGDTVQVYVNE
Nature of the assay: FACS on CHO-K1 cells over-expressing mouse AMHR2. The protocol: (§2) To evaluate these antibodies' cross reactivities to cyno, rat and mouse AMHR2, CHO-K1 cells over-expressing cyno, rat and mouse AMHR2, respectively, were harvested from flasks. 100 μl of 1×10⁶ cells/ml of cells were incubated with primary antibodies in 4-fold serial dilutions starting from 300 nM to 0.018 nM for 30 minutes on ice. After being washed with 200 μl of FACS buffer twice, cells were incubated with secondary antibody for 30 minutes on ice. Cells were washed with 200 μl of FACS buffer twice and analyzed by FACS.

Another assay concerns the target T3, rat AMHR2 (rat, UniProt Q62893 18-557).
T3 construct: whole, on cells; also called rat AMHRII
T3 sequence (looked up): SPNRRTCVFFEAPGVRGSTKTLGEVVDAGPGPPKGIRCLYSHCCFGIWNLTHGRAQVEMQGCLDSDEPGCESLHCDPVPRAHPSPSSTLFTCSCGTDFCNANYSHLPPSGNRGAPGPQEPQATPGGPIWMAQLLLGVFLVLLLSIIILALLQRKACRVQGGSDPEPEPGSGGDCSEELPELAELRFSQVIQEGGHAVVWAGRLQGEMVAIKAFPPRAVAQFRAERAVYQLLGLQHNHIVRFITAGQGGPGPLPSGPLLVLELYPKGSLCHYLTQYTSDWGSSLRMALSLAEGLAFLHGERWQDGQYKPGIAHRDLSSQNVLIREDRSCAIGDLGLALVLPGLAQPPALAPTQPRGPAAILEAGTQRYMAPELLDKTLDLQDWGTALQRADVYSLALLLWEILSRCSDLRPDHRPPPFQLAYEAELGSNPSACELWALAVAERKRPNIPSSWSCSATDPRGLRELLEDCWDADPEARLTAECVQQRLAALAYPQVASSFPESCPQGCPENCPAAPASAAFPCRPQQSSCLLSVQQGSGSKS
Nature of the assay: FACS on CHO-K1 cells over-expressing rat AMHR2. The protocol: as §2

Numbering of substitutions follows the chain as printed.

B1: xi31D9B3 hIgG1 (antibody, V domains shown)
VH: QVKLLQSGAALVKPGASVKMSCKASGYTFTDYWVSWVKQSHGKSLEWIGEIYPKNGVSNFNEKFKGKATLTVDKSTSTAYMELRRLTSEDSAIFYCTRQRDYWGQGVMVTVSS
VL: DVVLTQTPGSLSVTLGDQASISCRSSQSLEYGDGYTYLEWYLQKPGQSPQLLIYGVSNRFSGVPDRFIGSGSGTDFTLKISRVEPEDLGVYYCFQATHDPNTFGAGTKLELK
notes: Murine variable domains in human chimeric format, human IgG1; also called xi31D9B3 hlgG1; 31D9B3 hlgG1
Usually EC50 stands for the midpoint of the concentration-response curve. As for B1, the EC50 in [1] worked out at 881 pM; in assay [2], 570 pM; in [4] it was 880 pM; in assay [5] it was 1160 pM; in assay [6], 658 pM; in assay [7] it was 881 pM. For the same molecule, the concentration for a half-maximal effect (EC50) in [8] came out at 880 pM. Further, the “Top (MFI)” value was determined as 26200 MFI in [1]; 8360 MFI in [2]; 35200 MFI in assay [4]; 122000 MFI in assay [5]; 18600 MFI in assay [6]; 26200 MFI in assay [7]. For the same molecule, in assay [8], the “Top (MFI)” value was 35200 MFI. In assay [3], the “ADCC reporter bioassay, EC50” value turned out to be 270 pM. Besides, the “ADCC reporter bioassay, Top (MFI)” value in assay [3] was 14400 MFI.

B2: 31D9B3 VH1.3-VL2.2 hIgG1 (antibody, V domains shown)
VH: QVQLVQSGAEVKKPGASVKVSCKASGYTFTDYWVSWVRQAPGQGLEWMGEIYPKNQVSNFNEKFKGRVTMTTDTSTSTAYMELRSLRSDDTAVYYCARQRDYWGQGTLVTVSS
VL: DVVMTQSPLSLPVTLGQPASISCRSSQSLEYGDRYTYLEWYLQRPGQSPRLLIYGVSNRFSGVPDRFSGSGSGTDFTLKISRVEAEDVGVYYCFQATHDPNTFGQGTKLEIK
notes: Humanized, PTM de-risked, human IgG1; also called 31D9B3 VH1.3-VL2.2 hlgG1
For B2, the values for the EC50 in assay [1] and in [6] were 703 pM and 784 pM, respectively. Besides, the “Top (MFI)” value came out at 24100 MFI in assay [1] and 16400 MFI in [6]. For the same molecule, the binding result with mouse AMHR2 and with rat AMHR2 was “no binding (tested: 300 nM highest concentration)” each time.

B3: 108F3D1E9 H1L1 hIgG1 (antibody, V domains shown)
VH: QLQLQESGPGLVKPSETLSLTCTVSGYSITSDFAWNWIRQPPGKGLEWIGYISFSGSTSYNPSLKSRVTISVDTSKNQFSLKLSSVTAADTAVYYCARSRYSWFAYWGQGTLVTVSS
VL: DIQMTQSPSSLSASVGDRVTITCRASESVDTYGNSFMHWYQQKPGKAPKLLIYRASNLESGVPSRFSGSGSGTDFTLTISSLQPEDFATYYCQQSNEDPYTFGGGTKVEIK
notes: Humanized, PTM de-risked VH, human IgG1; also called 108F3D1E9 H1L1 hlgG1
In the case of B3, the binding result in the assay with mouse AMHR2 and with rat AMHR2 was “binds” each time. In addition, the EC50 in [6] was determined as 528 pM; in [7] it was 740 pM. The “Top (MFI)” value stood at 16200 MFI in assay [6] and 65400 MFI in [7].

B4: 94C4C3 H1L1 hIgG1 (antibody, V domains shown)
VH: B3 VH with F33Y, F54Y, T58I, A105D
VL: EIVLTQSPGTLSLSPGERATLSCSASESVDTYGNSFMHWYQQKPGQAPRLLIYRASSLESGIPDRFSGSGSGTDFTLTISRLEPEDFAVYYCQQSNEDPYTFGGGTKVEIK
notes: Humanized, human IgG1; also called 94C4C3 H1L1 hlgG1
As for B4, the binding result in the assay with mouse AMHR2 and with rat AMHR2 was “binds” in each case. Besides, the EC50 in assay [6] came to 695 pM; in [7] it was 1700 pM. For the same molecule, the “Top (MFI)” value in assay [6] came to 18900 MFI; in assay [7] it was 53000 MFI.
